What was measured:
[1] = molecular target: T1, SYP41 (Arabidopsis thaliana) (UniProt O65359)
T1 sequence: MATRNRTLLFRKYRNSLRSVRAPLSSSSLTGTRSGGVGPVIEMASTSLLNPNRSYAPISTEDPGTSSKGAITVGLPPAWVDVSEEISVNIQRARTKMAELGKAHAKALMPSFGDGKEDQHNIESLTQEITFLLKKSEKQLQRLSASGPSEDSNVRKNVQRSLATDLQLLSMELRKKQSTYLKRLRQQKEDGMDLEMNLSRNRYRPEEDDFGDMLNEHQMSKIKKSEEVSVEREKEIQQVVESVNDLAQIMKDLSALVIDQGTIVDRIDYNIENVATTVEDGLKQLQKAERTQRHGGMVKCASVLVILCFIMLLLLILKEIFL

[2] = molecular target: T2, SYP42 (Arabidopsis thaliana) (UniProt Q9SWH4)
T2 sequence: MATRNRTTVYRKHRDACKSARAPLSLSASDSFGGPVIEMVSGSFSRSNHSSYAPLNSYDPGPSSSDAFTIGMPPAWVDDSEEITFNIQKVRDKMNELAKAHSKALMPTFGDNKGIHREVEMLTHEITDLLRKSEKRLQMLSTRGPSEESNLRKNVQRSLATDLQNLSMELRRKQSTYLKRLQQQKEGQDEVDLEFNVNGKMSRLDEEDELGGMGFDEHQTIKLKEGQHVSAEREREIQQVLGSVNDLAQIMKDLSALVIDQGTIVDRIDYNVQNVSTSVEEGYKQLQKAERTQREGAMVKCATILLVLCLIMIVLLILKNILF

[3] = molecular target: T3, SYP43 (Arabidopsis thaliana) (UniProt Q9SUJ1)
T3 sequence: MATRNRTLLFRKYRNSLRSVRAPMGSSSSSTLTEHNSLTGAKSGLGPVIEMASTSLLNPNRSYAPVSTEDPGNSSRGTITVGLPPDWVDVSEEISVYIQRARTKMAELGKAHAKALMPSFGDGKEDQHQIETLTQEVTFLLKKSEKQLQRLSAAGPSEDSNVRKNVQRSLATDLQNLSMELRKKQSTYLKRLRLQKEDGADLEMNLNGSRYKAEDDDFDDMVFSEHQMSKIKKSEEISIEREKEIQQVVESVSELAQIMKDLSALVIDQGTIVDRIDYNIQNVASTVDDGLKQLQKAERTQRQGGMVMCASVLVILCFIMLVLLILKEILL

soluble fragment of VTI12 (domain or fragment)
< 4%: NBD fluorescence increase (lipid mixing) of SYP41 acceptor vesicles with R-VTI11 donor vesicles after 30 min preincubation with YKT62 and VTI12s; pair blocked: m1 + m4 [1] | NBD fluorescence increase (lipid mixing) of SYP41 acceptor vesicles with R-VTI12 donor vesicles after 30 min preincubation with YKT62 and VTI12s; pair blocked: m1 + m5 [1] | NBD fluorescence increase (lipid mixing) of SYP42 acceptor vesicles with R-VTI11 donor vesicles after 30 min preincubation with YKT62 and VTI12s; pair blocked: m2 + m4 [2] | NBD fluorescence increase (lipid mixing) of SYP42 acceptor vesicles with R-VTI12 donor vesicles after 30 min preincubation with YKT62 and VTI12s; pair blocked: m2 + m5 [2] | NBD fluorescence increase (lipid mixing) of SYP43 acceptor vesicles with R-VTI11 donor vesicles after 30 min preincubation with YKT62 and VTI12s; pair blocked: m3 + m4 [3] | NBD fluorescence increase (lipid mixing) of SYP43 acceptor vesicles with R-VTI12 donor vesicles after 30 min preincubation with YKT62 and VTI12s; pair blocked: m3 + m5 [3]

B1: soluble fragment of VTI11 (domain or fragment)
chain: MSDVFDGYERQYCELSASLSKKCSSAISLDGEQKKQKLSEIKSGLENAEVLIRKMDLEARTLPPNLKSSLLVKLREFKSDLNNFKTEVKRITSGQLNAAARDELLEAGMADTKTASADQRARLMMSTERLGRTTDRVKDSRRTMMETEEIGVSILQDLHGQRQSLLRAHETLHGVDDNIGKSKKILTDMTRRMNKNKWTI
< 4%: NBD fluorescence increase (lipid mixing) of SYP41 acceptor vesicles with R-VTI11 donor vesicles after 30 min preincubation with YKT62 and VTI11s; pair blocked: m1 + m4 [1] | NBD fluorescence increase (lipid mixing) of SYP41 acceptor vesicles with R-VTI12 donor vesicles after 30 min preincubation with YKT62 and VTI11s; pair blocked: m1 + m5 [1] | NBD fluorescence increase (lipid mixing) of SYP42 acceptor vesicles with R-VTI11 donor vesicles after 30 min preincubation with YKT62 and VTI11s; pair blocked: m2 + m4 [2] | NBD fluorescence increase (lipid mixing) of SYP42 acceptor vesicles with R-VTI12 donor vesicles after 30 min preincubation with YKT62 and VTI11s; pair blocked: m2 + m5 [2] | NBD fluorescence increase (lipid mixing) of SYP43 acceptor vesicles with R-VTI11 donor vesicles after 30 min preincubation with YKT62 and VTI11s; pair blocked: m3 + m4 [3] | NBD fluorescence increase (lipid mixing) of SYP43 acceptor vesicles with R-VTI12 donor vesicles after 30 min preincubation with YKT62 and VTI11s; pair blocked: m3 + m5 [3]
